Assays:
[1] = target: T1, recombinant MAGEA3 protein (human, UniProt P43357 1-314); test: ELISA, recombinant MAGEA3 coated to plastic, serial dilutions of antibody, OD 450 nm
T1 construct: In Experiment 4C MAGEA3 was also expressed in transiently transfected HEK293T cells (fixed and permeabilized); also called His-tagged MAGEA3; CT1.3
Method: FIG. 4 EC50 determination of recombinant human monoclonal antibodies to MAGEA3. MAGEA3-ELISA was carried out using recombinant MAGEA3 coated to plastic and serial dilutions of the human monoclonal antibodies 21B4, 54B4, 94G11, 9A5, 31H10, 43B10, 2G4, 20C10, 26C9 and 4D6 (A-J). EC50 values are indicated in each figure.
The EC₅₀, the concentration at which half-maximal binding of the antibody to its antigen is observed was determined in MAGEA3 ELISA using serial dilutions of the human monoclonal antibodies 21B4, 54B4, 94G11, 9A5, 31H10, 43B10, 2G4, 20C10, 26C9 and 4D6. EC50 values were determined mathematically by derivation of the best-fit line using GraphPad software.

recombinant MAGEA4 = target: T2, recombinant MAGEA4 (UniProt P43358 1-317, limits assumed); test: ELISA on coated recombinant MAGEA proteins, serial dilutions of antibody (concentrations not printed on the sheet)
T2 construct: also called CT1.4
T2 sequence (looked up): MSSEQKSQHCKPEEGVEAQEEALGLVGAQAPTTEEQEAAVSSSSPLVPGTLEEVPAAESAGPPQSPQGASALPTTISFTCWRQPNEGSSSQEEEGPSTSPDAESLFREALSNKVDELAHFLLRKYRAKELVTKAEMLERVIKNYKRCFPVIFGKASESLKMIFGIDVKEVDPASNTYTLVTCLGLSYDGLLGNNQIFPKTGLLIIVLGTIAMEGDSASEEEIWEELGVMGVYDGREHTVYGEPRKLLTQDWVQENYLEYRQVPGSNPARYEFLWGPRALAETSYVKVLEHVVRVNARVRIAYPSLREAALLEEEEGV
Method: (§1) Recombinantly expressed MAGEA3, MAGEA1, MAGEA4, MAGEA10 were coated on ELISA plates and binding of MAGEA3 antibodies 21B4, 94G11, 2G4, 9A5 and 54B4 to these proteins was tested. The results are depicted in FIG. 3B).

recombinant MAGEA10 = target: T3, recombinant MAGEA10 (UniProt P43363 1-369, limits assumed); test: as above
T3 construct: also called CT1.10
Method: as §1

recombinant MAGEA1 = target: T4, recombinant MAGEA1 (UniProt P43355 1-309, limits assumed); test: as above
T4 construct: also called CT1.1
T4 sequence (looked up): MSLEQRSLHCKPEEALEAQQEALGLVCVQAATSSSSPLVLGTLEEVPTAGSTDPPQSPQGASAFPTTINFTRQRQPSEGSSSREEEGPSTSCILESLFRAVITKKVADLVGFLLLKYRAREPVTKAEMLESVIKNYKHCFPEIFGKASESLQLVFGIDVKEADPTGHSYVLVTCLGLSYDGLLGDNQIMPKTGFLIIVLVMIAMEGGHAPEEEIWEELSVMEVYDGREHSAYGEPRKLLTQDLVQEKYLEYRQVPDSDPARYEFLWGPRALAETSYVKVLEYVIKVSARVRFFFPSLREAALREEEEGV
Method: as §1

MAGEA6 = target: T5, MAGEA6 (UniProt P43360 1-314, limits assumed); test: flow cytometry on fixed, permeabilized HEK293T cells transiently transfected with MAGEA6; PE-labeled anti-human antibody
T5 construct: whole, on cells; Intracellular antigen: the transfected cells were fixed and permeabilized before staining; also called CT1.6
Method: HEK293T cells transiently transfected with MAGEA3 or MAGE A6 were fixed and permeabilized and incubated with human-derived antibodies. Binding of human-derived antibodies to the cells was detected by flow cytometry using PE-labeled anti-human antibodies. […] Filled histograms show binding of 21B4, 31H10, 94G11 and 54B4 to transiently transfected HEK 293 cells. Only a proportion of the cells was transfected resulting in a population expressing the transgene and in a population not expressing the transgene. […] The results are depicted in FIG. 3C).

MAGEA3 peptide No 7 = target: T6, MAGEA3 peptide No 7; test: ELISA on plates coated with overlapping 20mer MAGEA3 peptides; antibody at 1 µg/ml; HRP goat anti-human IgG Fc-gamma
T6 construct: member of the group m18; also called 20mer peptide, amino acids 61-80 of MAGEA3
T6 peptide: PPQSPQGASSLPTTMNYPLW
Method: (§2) 20mer peptides spanning the entire MAGEA3 protein with 10 aa overlaps shared by each adjacent peptide (Peptides&Elephants, Nuthetal, Germany) were used to coat Maxisorp ELISA plates (Nunc, Rochester, N.Y.). As control a 20mer peptide representing amino acids 40-21 from the NY-ESO-1 protein was used (rev). The numbering of amino acids of MAGEA3 is based on SEQ ID No.: 101.
(§3) Human recombinant antibody was used at a concentration of 1 μg/ml with the exception of antibody 9A5 which was used at […]. Bound human antibody was detected using horseradish peroxidase-conjugated goat anti-human IgG Fc-gamma specific antibodies (Jackson ImmunoResearch, Europe Ltd., Cambridgeshire, UK).

MAGEA3 peptide No 24 = target: T7, MAGEA3 peptide No 24; test: as above
T7 construct: member of the group m18; also called 20mer peptide, amino acids 231-250 of MAGEA3
T7 peptide: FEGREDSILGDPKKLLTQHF
Method: as §2, §3

MAGEA3 peptide No 8 = target: T8, MAGEA3 peptide No 8; test: as above
T8 construct: member of the group m18; also called 20mer peptide, amino acids 71-90 of MAGEA3
T8 peptide: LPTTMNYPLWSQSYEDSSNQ
Method: as §2, §3

T5 sequence (P43360 whole entry): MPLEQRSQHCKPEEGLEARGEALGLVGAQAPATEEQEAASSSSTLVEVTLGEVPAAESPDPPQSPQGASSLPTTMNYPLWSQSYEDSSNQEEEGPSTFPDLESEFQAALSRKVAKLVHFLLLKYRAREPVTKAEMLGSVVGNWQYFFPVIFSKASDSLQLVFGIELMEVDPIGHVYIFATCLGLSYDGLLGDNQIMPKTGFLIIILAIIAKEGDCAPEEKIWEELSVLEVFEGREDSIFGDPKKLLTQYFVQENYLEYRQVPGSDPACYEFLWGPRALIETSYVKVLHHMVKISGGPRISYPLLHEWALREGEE
T3 sequence (P43363 whole entry): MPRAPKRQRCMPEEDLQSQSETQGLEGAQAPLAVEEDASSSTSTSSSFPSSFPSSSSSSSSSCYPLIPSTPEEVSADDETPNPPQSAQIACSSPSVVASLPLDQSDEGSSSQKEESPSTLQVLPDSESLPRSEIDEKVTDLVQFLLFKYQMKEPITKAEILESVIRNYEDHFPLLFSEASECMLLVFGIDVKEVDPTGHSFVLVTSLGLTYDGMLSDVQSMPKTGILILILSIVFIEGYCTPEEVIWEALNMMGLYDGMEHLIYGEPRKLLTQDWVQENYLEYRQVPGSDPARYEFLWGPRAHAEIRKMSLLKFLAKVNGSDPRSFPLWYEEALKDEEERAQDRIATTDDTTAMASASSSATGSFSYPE
T1 sequence (P43357 whole entry): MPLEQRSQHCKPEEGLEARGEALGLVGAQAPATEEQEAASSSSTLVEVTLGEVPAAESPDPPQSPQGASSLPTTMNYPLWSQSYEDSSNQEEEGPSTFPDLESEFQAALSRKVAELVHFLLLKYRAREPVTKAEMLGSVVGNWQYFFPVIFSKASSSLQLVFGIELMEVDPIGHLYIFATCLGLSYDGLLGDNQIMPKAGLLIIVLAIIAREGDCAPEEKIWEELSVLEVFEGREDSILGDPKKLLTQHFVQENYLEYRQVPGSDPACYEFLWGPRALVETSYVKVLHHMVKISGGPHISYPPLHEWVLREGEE

B1: 21B4 (antibody, V domains shown)
VH: QVQLVESGGGVVQPGRSLRLSCTASGFRFRSHGMHWVRQAPGKGLEWVAVISYDGNNKLYADSVKGRITISRDNSKNTLFLQMNNVRAEDTAVYYCASPYTSDWQYFQYWGQGTLVIVSS
VL: EIVMTQSPATLSVSPGERATFSCRASQNISTTLAWYQQKPGQAPRLLIYDTSTRATGIPARFSGSGSGTEFTLTISSLQSEDLAVYYCQQSNSWPLTFGGGTKVEIK
notes: Patient-derived; also called human-derived recombinant antibody 21B4; human monoclonal antibody 21B4
EC50 [1]: 0.0313 nM | binding result (recombinant MAGEA4): no binding | binding result (recombinant MAGEA10): no binding | binding result (recombinant MAGEA1): no binding | binding result (MAGEA6): binds | binding result (MAGEA3 peptide No 7): binds | binding result (MAGEA3 peptide No 24): binds | binding result (MAGEA3 peptide No 8): binds
